Assay results from patent publication US11753479B2, “Nucleic acids encoding anti-OX40L antibodies” (Kymab Limited, priority 2014, dated 2023).

T1: hOX40L expressed on CHO-S cells (Homo sapiens, UniProt P23510)
T1 construct: expressed in transfected cells
T1 sequence (P23510 1-183): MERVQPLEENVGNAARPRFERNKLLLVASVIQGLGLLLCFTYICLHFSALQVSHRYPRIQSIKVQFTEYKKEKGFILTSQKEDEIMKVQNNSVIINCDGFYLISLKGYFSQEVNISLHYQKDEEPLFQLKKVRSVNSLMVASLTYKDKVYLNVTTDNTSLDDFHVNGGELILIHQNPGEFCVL


Molecular target: T1, hOX40L expressed on CHO-S cells
Assay: Binding to CHO-S expressed hOX40L (FACS)
Conditions: binding to CHO-S expressed hOX40L by FACS
Protocol: To determine whether wells selected using the primary screen selection criteria had the required characteristics set by the inventors, a number of assays were performed. Hybridoma clones selected as hits from primary screening were cultured for 3 days and the supernatants collected from hybridoma cells were tested to assess whether the secreted antibodies that bind to CHO-S expressed hOX40L, in some case bind to untransfected CHO-S cells and whether they neutralise recombinant OX40R Fc binding to CHO-S hOX40L and ability to neutralise OX40R binding to recombinant biotinylated hOX40L.
CHO-S cells expressing hOX40L or untransfected CHO-S cells, diluted in FACS buffer (PBS+1% w/v BSA+0.1% w/v NaN3) were distributed to a 96 well V-bottom plate (Greiner) at a density of 1×10^5 cells per well. Cells were washed with 150 μL of PBS and centrifuged at 300×g for 3 min. Supernatant was aspirated and 150 μL of PBS added. This wash step was repeated.
25 μL of hybridoma supernatant or purified antibody from hybridoma supernatant diluted in FACS buffer was added to the washed cells and incubated for 10-15 minutes. Reference Antibody or mouse IgG1 control antibody (Sigma) were diluted in FACS buffer to 20 μg/mL and 25 μL added to cells. 25 μL of human OX40R Fc (in-house) diluted to 1000 ng/mL in FACS buffer were then added to wells. Cells were incubated at 4° C. for 30 minutes.
Cells were washed twice with 150 μL of PBS centrifuging after each wash step and aspirating supernatant (centrifuged at 300×g for 3 minutes). […]
To fix cells 100 μL 2% v/v paraformaldehyde was added and cells incubated for 30 minutes at 4° C., cells were pelleted by centrifugation 300×g and the plates and resuspended in 50 μL of FACS buffer. PE and APC signal intensity (geomean) was measured by flow cytometry using a BD FACS Array instrument.
% of control binding was calculated using geomean fluorescence as described in equation 1 where total binding was defined as reference antibody at 10 μg/mL and non-specific binding as mouse IgG1 antibody at 10 μg/mL. % receptor binding was calculated using Equation 3. […]

| Molecule | FACS Binding |
| --- | --- |
| 9H04 (hybridoma): murine/human chimeric anti-OX40L antibody purified from hybridoma supernatant (protein, listed as Homo Sapiens, VH only; VL and constant regions missing, murine/human chimeric anti-OX40L antibody purified from hybridoma supernatant) QVQLVESGGGLVKPGGSLRLSCAASRFTLSDYYMTWIRQAPGKGLEWVSYISSSGNTIYYADSVKGRFTISRDNAKNSLYLQMNSLRAEDTAVYYCARDLSGSYWDYYYGMDVWGQGTTVTVSS | YES |
| 2D10 (hybridoma): murine/human chimeric anti-OX40L antibody 2D10 purified from hybridoma supernatant (antibody, V domains shown) VH: EVQLVESGGGLVQPGGSLRLSCAASGFTFSNYAMNWVRQAPGKGLEWVSTISGSGGATRYADSVKGRFTISRDNSRNTVYLQMNSLRVEDTAVFYCTKDRLIMATVRGPYYYGMDVWGQGTTVTVSS VL: DIQMTQSPSSLSASVGDRVTITCRASQSISSYLNWYQQKPGKAPNLLIYAASSLQSGVPSRFSGSGSETDFTLTISSLQPEDFATYYCQQSHSVSFTFGPGTKVDIK | YES |
| 10A07 (hybridoma): murine/human chimeric anti-OX40L antibody 10A07 purified from hybridoma supernatant (antibody, V domains shown) VH: EVQLVESGGVLVQPGGSLRLSCAASGFTFSSYIMTWVRQAPGKGLEWVSGISGSGGGTYYADSMKGRFTISRDNSKNTLYLQMNSLRVEDTAVYYCAKDRLGPITLVRGGYYYGMDVWGQGTTVTVSS VL: DIQMTQSPSSLSASVGDRVTITCRASQSISDYLNWYQQKPGKAPKFLIYAASSLQSGVPSRFSGSGSGTDFTLTVSSLQPEDFATYYCQQSYSTPRTFGQGTRVEIK | YES |
